The record followed here is US20250332277A1 (Eli Lilly, published 2025).

By Kd is commonly meant the concentration at which binding is half-saturated. The term koff denotes a measure of how fast the partners let go of each other. As a reminder, the kon is the second-order rate constant of association. The term EC50 denotes the midpoint of the concentration-response curve. A higher EC50 goes with weaker potency.

Assay [1] deals with T1, human PTK-7 on cells (OV90-PTK-7, NCI-H446, OVCAR-3) (human, UniProt Q13308 31-1070).
T1 sequence: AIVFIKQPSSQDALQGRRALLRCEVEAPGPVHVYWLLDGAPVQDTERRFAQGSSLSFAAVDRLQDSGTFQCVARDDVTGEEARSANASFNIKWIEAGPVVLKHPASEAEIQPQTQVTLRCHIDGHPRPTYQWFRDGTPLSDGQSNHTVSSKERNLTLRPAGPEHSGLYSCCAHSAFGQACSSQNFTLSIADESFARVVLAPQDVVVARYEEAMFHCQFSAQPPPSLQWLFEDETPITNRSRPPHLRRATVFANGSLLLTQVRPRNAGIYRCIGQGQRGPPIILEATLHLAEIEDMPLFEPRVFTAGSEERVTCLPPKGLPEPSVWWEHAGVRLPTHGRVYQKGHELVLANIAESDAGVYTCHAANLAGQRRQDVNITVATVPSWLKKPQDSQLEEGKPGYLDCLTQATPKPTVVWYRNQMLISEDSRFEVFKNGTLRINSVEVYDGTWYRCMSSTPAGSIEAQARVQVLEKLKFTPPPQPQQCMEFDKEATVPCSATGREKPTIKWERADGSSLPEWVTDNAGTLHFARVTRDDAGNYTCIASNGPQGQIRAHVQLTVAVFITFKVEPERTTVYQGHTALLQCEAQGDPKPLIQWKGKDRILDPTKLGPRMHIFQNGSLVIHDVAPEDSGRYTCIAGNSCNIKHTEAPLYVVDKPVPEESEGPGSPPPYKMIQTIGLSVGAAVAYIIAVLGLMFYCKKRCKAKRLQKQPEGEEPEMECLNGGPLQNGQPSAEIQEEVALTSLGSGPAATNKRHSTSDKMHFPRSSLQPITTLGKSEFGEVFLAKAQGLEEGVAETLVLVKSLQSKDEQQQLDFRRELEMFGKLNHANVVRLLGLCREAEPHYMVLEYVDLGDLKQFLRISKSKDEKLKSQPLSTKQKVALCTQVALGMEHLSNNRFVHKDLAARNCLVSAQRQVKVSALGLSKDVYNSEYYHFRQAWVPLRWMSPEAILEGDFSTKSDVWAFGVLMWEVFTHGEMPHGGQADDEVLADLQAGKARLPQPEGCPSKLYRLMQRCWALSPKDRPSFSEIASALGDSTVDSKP
The assay is described as follows: cell-based or functional assay.

Assay [2] has as its target T2, recombinant human PTK7 (Acro Biosystems Cat. No. PT7-H52H3) (human, UniProt Q13308 31-704).
T2 construct: Bought recombinant protein; also called human PTK7 analyte
T2 sequence: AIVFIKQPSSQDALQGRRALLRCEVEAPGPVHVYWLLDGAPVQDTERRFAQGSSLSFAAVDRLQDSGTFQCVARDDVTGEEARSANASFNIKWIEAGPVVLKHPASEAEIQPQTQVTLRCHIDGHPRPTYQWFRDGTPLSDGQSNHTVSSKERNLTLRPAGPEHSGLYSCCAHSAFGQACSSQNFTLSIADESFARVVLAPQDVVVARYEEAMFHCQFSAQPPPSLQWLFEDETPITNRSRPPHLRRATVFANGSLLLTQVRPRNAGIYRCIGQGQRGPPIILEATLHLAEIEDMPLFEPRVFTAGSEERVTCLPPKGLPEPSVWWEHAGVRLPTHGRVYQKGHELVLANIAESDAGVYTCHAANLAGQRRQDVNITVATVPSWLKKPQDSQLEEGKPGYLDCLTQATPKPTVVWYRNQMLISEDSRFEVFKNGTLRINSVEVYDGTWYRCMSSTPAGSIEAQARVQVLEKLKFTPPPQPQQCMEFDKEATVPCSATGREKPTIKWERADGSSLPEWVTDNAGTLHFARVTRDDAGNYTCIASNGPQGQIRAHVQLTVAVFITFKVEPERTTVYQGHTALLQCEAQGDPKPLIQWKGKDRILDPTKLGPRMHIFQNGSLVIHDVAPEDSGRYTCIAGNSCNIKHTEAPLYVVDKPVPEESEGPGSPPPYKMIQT
Put plainly: SPR, Biacore 8K+, ADC captured by anti-human Fc, human PTK7 as analyte, 37 C, 1:1 model. The method, then:
A Biacore 8K+ instrument (Cytiva, Marlborough, MA) was used to determine kinetics and affinity parameters for the binding interactions of ADCs binding to recombinant human PTK7 (Acro Biosystems Cat. No. PT7-H52H3, Newark, DE).
In each analysis cycle, a different ADC was captured on flow cell 2 of each channel by injecting a 5 μg/mL solution at 10 μL/min for 2 minutes. After capture, the same analyte was injected on flow cells 1 and 2 in all 8 channels for 2 minutes at 30 μL/min and dissociation was monitored for 10 minutes. After dissociation, all surfaces were regenerated with three consecutive 1-minute injections of 75 mM phosphoric acid at 10 μL/min. ADC capture and analyte cycles were repeated to obtain human PTK7 analyte binding of each ADC at analyte concentrations of 0, 2.47, 7.41, 22.2, 66.7, 200, and 600 nMs.
Sensorgram data were reference subtracted and blank subtracted, then globally fit with the default 1:1 binding model in Biacore Insight Evaluation Software v3.0.12.15655, as shown in Table 4.
On the technique in general: SPR reads the build-up and loss of mass on a sensor chip optically.

Assay [3] has as its target T1, human PTK-7 on cells (OV90-PTK-7, …). The assay is described as follows: flow cytometry, OV90-PTK-7 cells. The method, then:
(§1) OV90-PTK-7, overexpressing engineered ovarian tumor line representing high expression, NCI-H446 human lung cancer cells representing medium endogenous expression and OVCAR-3 human ovarian cancer cells representing low endogenous expression. […] OV90 parental cells and Namalwa-luc-GFP cells were selected as the PTK-7 negative cell lines. Antibody binding was quantified via flow cytometry and both the EC₅₀ of the binding curves and the maximum binding MFI for each antibody were recorded.
(§2) Cells were dissociated using non-enzymatic dissociation buffer for 5 min at 37° C. Cells were counted and aliquoted to a V-bottom polypropylene 96-well plate at 10⁵ cells/well. Cells were centrifuged at 1800 rpm×3 min and the supernatant discarded. An 11-point antibody dilution series was prepared in assay buffer (1×PBS containing 5% FBS) starting at 300 nM and diluting 1:4 down. The dilution series was added to cells at 100 μL/well and mixed by pipetting. Several untreated control wells/cell lines were prepared in assay buffer alone. Cells and antibodies were incubated at 4° C. on an orbital shaker for 1 hour. After incubation, the assay plates were centrifuged and washed twice with 300 μL/well of assay buffer. Cell pellets were then stained with a 1:500 dilution of Alexa647 conjugated mouse anti-human IgG secondary antibody in assay buffer, at 100 μL/well. Assay plates were incubated shaking in the dark at 4° C. for 1 hour. After incubation, plates were centrifuged, and the cells were washed twice with 300 μL/well of assay buffer. A 1:2000 dilution of Zombie Green viability marker in 1×PBS was aliquoted to the cells at 100 μL/well and plates were incubated in the dark for 10 min shaking at room temperature. Cell pellets were then washed 1× with assay buffer and fixed with 200 μL/well of 4% paraformaldehyde in 1×PBS in the dark at room temperature for 15 min. Cells were centrifuged and washed before resuspending in 100 μL of assay buffer for acquisition on Attune Cytpix Cytometer.
(§3) Cells were acquired on an Attune Cytpix Cytometer and FCS files generated using Attune™ Cytometric Software (v. 6.0.1). FCS files were then analyzed on FlowJo (v10.8.1).
(In general: A flow cytometer gives signals particle by particle.)

Assay [4] has the same target. Put plainly: flow cytometry, OVCAR3 cells. As for the experimental part:
as §1, §2, §3

For assay [5] the target is unchanged. The assay is described as follows: flow cytometry, OV90-PTK-7 cells; against cofetuzumab. The method, then: as §1
as §2, with “Cells were centrifuged and washed before resuspending in 100 μL of assay buffer for acquisition on Attune Cytpix Cytometer.” left out
as §3

For assay [6] the target is unchanged. The assay is described as follows: flow cytometry, OVCAR3 cells; against cofetuzumab. As for the experimental part:
as §1
as §2, with “Cells were centrifuged and washed before resuspending in 100 μL of assay buffer for acquisition on Attune Cytpix Cytometer.” left out
as §3

Assay [7] shares this target. Put plainly: flow cytometry, NCI-H446 cells; against cofetuzumab. As for the experimental part:
as §1
as §2, with “Cells were centrifuged and washed before resuspending in 100 μL of assay buffer for acquisition on Attune Cytpix Cytometer.” left out
as §3

Assay [8] shares this target. Put plainly: flow cytometry, NCI-H446 cells. The method, then:
as §1, §2, §3

B1: Ab1-PSAR10-VA-exatecan (other)
heavy: EVQLVESGGGLVKPGGSLRLSCAASGFTFSSYIMNWVRQAPGKGLEWVSSISSSSTFIYYADSVKGRFTISRDNAKNSLYLQMNSLRAEDTAVYYCAKGFDYWGQGTLVTVSSASTKGPSVFPLAPSSKSTSGGTAALGCLVKDYFPEPVTVSWNSGALTSGVHTFPAVLQSSGLYSLSSVVTVPSSSLGTQTYICNVNHKPSNTKVDKRVEPKSCDKTHTCPPCPAPEAAGGPSVFLFPPKPKDTLMISRTPEVTCVVVSVSHEDPEVKFNWYVDGVEVHNAKTKPREEQYNSTYRVVSVLTVLHQDWLNGKEYKCKVSNKALPAPIEKTISKAKGQPREPQVYTLPPSREEMTKNQVSLTCLVKGFYPSDIAVEWESNGQPENNYKTTPPVLDSDGSFFLYSKLTVDKSRWQQGNVFSCSVMHEALHNHYTQKSLSLSPGK
light: DIQLTQSPSFLSASVGDRVTITCRASQDISSYLVWYQQKPGKAPKLLIYAASTLQSGVPSRFSGSGSGTEFTLTISSLQPEDFATYYCQQLNTYPRTFGQGTKVEIKRTVAAPSVFIFPPSDEQLKSGTASVVCLLNNFYPREAKVQWKVDNALQSGNSQESVTEQDSKDSTYSLSSTLTLSKADYEKHKVYACEVTHQGLSSPVTKSFNRGEC
modifications: PSAR10-VA-exatecan linker-payload (Formula XV) on cysteine thiols after full reduction of the antibody (DAR 8 procedure); positions not stated for this ADC
notes: Antibody-drug conjugate of Ab1; also called Ab1-VA-Exatecan
In the case of B1, the “Cytotoxicity IC50, OVCAR-3 cells (CellTiter-Glo, 7 days)” value in assay [1] was 4 nM. In assay [2], the Kd stood at 28.9 nM, the koff came to 0.0342 s⁻¹ and the kon is 1.19e+06 M⁻¹ s⁻¹.

B2: Ab4 (antibody, human IgG1, kappa, L234A L235A, V domains shown)
VH: EVQLVESGGGLVKPGGSLRLSCAASGFTFSSYSMNWVRQAPGKGLEWVSSIDSSSSFIYYADSVKGRFTISRDNAKNSLYLQMNSLRAEDTAVYYCARGTGLFDFWGQGTLVTVSS
VL: EIVLTQSPGTLSLSPGERATLSCRASQSFSSSYLAWYQQKPGQAPRLLIYGASSRATGIPDRFSGSGSGTDFTLTISRLEPEDFAVYYCQQYGRTPWTFGQGTKVEIKR
notes: Fully human antibody; also called Antibody 4; PTK-7 Antibody Ab4
Take B2: the “Average Max MFI” value in assay [3] came to 69900 MFI; in assay [4], 16400 MFI; in assay [8], 26100 MFI. Besides, the EC50 was 1.28 nM in assay [3], 0.95 nM in assay [4] and 0.54 nM in assay [8]. For the same molecule, the “% of Cofetuzumab (Average Max MFI)” value amounted to 102% in assay [5], 75% in assay [6] and 97.4% in assay [7].

B3: Cofetuzumab (antibody, V domains shown)
VH: QVQLVQSGPEVKKPGASVKVSCKASGYTFTDYAVHWVRQAPGKRLEWIGVISTYNDYTYNNQDFKGRVTMTRDTSASTAYMELSRLRSEDTAVYYCARGNSYFYALDYWGQGTSVTVSS
VL: EIVLTQSPATLSLSPGERATLSCRASESVDSYGKSFMHWYQQKPGQAPRLLIYRASNLESGIPARFSGSGSGTDFTLTISSLEPEDFAVYYCQQSNEDPWTFGGGTKLEIK
As to B3, the “Average Max MFI” value in assay [3] stood at 68500 MFI; in assay [4], 21900 MFI; in assay [8], 26800 MFI. The figures for the EC50 in assay [3], in assay [4] and in assay [8] were 1.41 nM, 0.7 nM and 0.54 nM, respectively.

B4: Ab2 (antibody, human IgG1, kappa, L234A L235A, V domains shown)
VH: QVQLQESGPGLVKPSETLSLTCTVSGGSISTYYWSWIRQPAGKGLEWIGRIYTSGLTNYNPSLKSRVTMSVDTSKNQFSLKLSSVTAADTAVYYCARDPHYYDGSGFDYWGQGTLVTVSS
VL: not shown
notes: Fully human antibody; also called Antibody 2
As for B4, the figures for the “Average Max MFI” value in assay [3], in assay [4] and in assay [8] were 70500 MFI, 19200 MFI and 26200 MFI, respectively. The EC50 in assay [3] stood at 1.83 nM; in assay [8] it was 0.6 nM. Also, the “% of Cofetuzumab (Average Max MFI)” value was determined as 103% in assay [5], 87.7% in assay [6] and 97.6% in assay [7].

B5: Ab1 (antibody, human IgG1, kappa, L234A L235A, V domains shown)
VH: EVQLVESGGGLVKPGGSLRLSCAASGFTFSSYIMNWVRQAPGKGLEWVSSISSSSTFIYYADSVKGRFTISRDNAKNSLYLQMNSLRAEDTAVYYCAKGFDYWGQGTLVTVSS
VL: DIQLTQSPSFLSASVGDRVTITCRASQDISSYLVWYQQKPGKAPKLLIYAASTLQSGVPSRFSGSGSGTEFTLTISSLQPEDFATYYCQQLNTYPRTFGQGTKVEIKR
notes: Fully human antibody; also called Antibody 1; PTK-7 Antibody Ab1
With B5, the results for the “Average Max MFI” value in assay [3], in assay [4] and in assay [8] were 66100 MFI, 15700 MFI and 23200 MFI, respectively. Further, the EC50 in assay [3] came out at 1.25 nM; in assay [4] it was 2.81 nM; in assay [8], 0.7 nM. Further, the figures for the “% of Cofetuzumab (Average Max MFI)” value in assay [5], in assay [6] and in assay [7] were 96.5%, 71.6% and 86.3%, respectively.
